Paper PMC4207752 (2014)

Target: F-actin (skeletal muscle) (Oryctolagus cuniculus, UniProt P68135)
Test: co-sedimentation assay

B1: dystrophin N-ABD K18N 1-246 (protein)
chain: MLWWEEVEDCYEREDVQNKTFTKWVNAQFSKFGKQHIENLFSDLQDGRRLLDLLEGLTGQKLPKEKGSTRVHALNNVNKALRVLQNNNVDLVNIGSTDIVDGNHKLTLGLIWNIILHWQVKNVMKNIMAGLQQTNSEKILLSWVRQSTRNYPQVNVINFTTSWSDGLALNALIHSHRPDLFDWNSVVCQQSATQRLEHAFNIARYQLGIEKLLDPEDVDTTYPDKKSILMYITSLFQVLPQQVSIE
Question: With B1 as the binder, how does the Kd read?
Answer: Its Kd is ~45 µM.
